Results: publication PMC8525972

Biological target: fluorescein-labeled Fc-III (Fluorescein-Ahx-…-NH2)
Test: other fluorescence titration

Row | fold increase of fluorescence intensity at 2.5 g/L [fold] | limit of detection by fluorescence intensity [g/L] | Substance
1 | 1.8 | 0.0001 | human IgG1 adalimumab biosimilar Exemptia (antibody)
2 |  | 0.1 | murine IgG1 (antibody)
